According to the DeepSol protein solubility set:

Test: soluble on expression in E. coli; label from the status in PepcDB or PDB records

**Q.** Which “soluble on expression in E. coli” value does the source give for “MIIVRLCGGLGNQMFQYAAGLAAAHRIGSEVKFDTHWFDATCLHQGLELRRVFGLELPEPSSKDLRKVLGACVHPAVRRLLSRRLLRALRPKSLVIQPHFHYWTGFEHLTDNVYLEGYWQSERYFSNIADIIRQQFRFVEPLDPHNAALMDEMQSGVSVSLHIRRGDYFNNPQMRRVHGVDLSEYYPAAVATMIEKTNAERFYVFSDDPQWVLEHLKLPVSYTVVDHNRGAASYRDMQLMSACRHHIIANSTFSWWGAWLNPRPDKVVIAPRHWFNVDVFDTRDLYCPEWIVLLEHHHHHH” here?
**A.** soluble

**Q.** Which “soluble on expression in E. coli” value does the source give for “MPNSSIQIWLQRQIALRTFPPNREDWYVKNGFGNSEMSLEERFASFVEAIRQEDSPYHEQLSGIDFQRFEIEVTLANQKTCMTEVIGFQNNSNQSSSTPNEKFKAVGKGKHVIYFTGIGTQYQDCLIDIAKAVQITGAHYYAFEYPGMRKLGGEVLEVNDMVNTGIALANTLLEKGISIDDILFQGDSFGAAVAKKVSDQFKLQSNVTVRCILNNTFSTFQAAVEGNLGAFSTLRYTVRPLLRYTGWDIRPGEGYGQDTPYQIHVNHTGDLTLGAGHATLAESIESNSQLEHFVDPCPEEYRIKRDIYKQWHWASLSEQGITFLETKYGRNSDGQLDTHLADLYLLKYDTGLGVYESFICKYLEDSNDYIASHPQKLSLDELPRPLESETVSLRQLIVSVLPSRPSIAGFFSRSTPVIEEVETEKQEQKSIELK” here?
**A.** soluble

**Q.** For “LTLGSISLTAFIMGVVFWGGFNTALEATNTEEFCIGCHSMESKPYQELQKTVHWSNHSGVRATCPDCHVPHSWGRKIARKMEASSDVWGWVFNTVNTSEKFEDKRLEMASREWARFERDDSLACKNCHNYDSMKWDTMSKLAQKQMKRAAEKDQSCVDCHKGIAHILPDMGTARAPQLIAEVGTGPSKFTNEQYYFSALTKPLFFSAKGDVEAGTLNVATKVKILESKENRVKVSISGWRKQIGAGRVIYYDFGINMLTAQLSKEAAKTEGVINGFEEKEDEMTGLKWQRVETTLWTDAEYLITEQQPLWDYARTTFRSSCSVCHTQPDEAHFDA”, which “soluble on expression in E. coli” value is on record?
**A.** not soluble

**Q.** With “MAEDIEEILAEIDGSQIEEYQKFFDAFDRGKQGYIMATQIGQIMHGMEQDFDEKTLRKLIRKFDADGSGKLEFDEFCALVYTVANTVDKETLEKELREAFRLFDKEGNGYISRPTLKALLKEIADDLTDQQLEEAVDEIDEDGSGKIEFEEFWELMAGESD” as the sequence, how does the “soluble on expression in E. coli” value read?
**A.** not soluble

**Q.** For “SLAEGLITGTVLTQFDQLYRKKPGMTMSCAKLPQNISKNRYRDISPYDATRVILKGNEDYINANYINMEIPSSSIINQYIACQGPLPHTCTDFWQMTWEQGSSMVVMLTTQVERGRVKCHQYWPEPTGSSSYGCYQVTCHSEEGNTAYIFRKMTLFNQEKNESRPLTQIQYIAWPDHGVPDDSSDFLDFVCHVRNKRAGKEEPVVVHCSAGIGRTGVLITMETAMCLIECNQPVYPLDIVRTMRDQRAMMIQTPSQYRFVCEAILKVYEEGFVKPLTTSTNK”, which “soluble on expression in E. coli” value is on record?
**A.** not soluble

**Q.** Which “soluble on expression in E. coli” value does the source give for “MSLQTIEEMDAYPAVDDSGDHLLDPNMIPTAATEVVMSGDGIERQFGDEEDTYQYEYTYEDDPQLEIGEEEVVVTDEAEYQEHWKDEEK” here?
**A.** not soluble

**Q.** With “EIVHLGLEDNDFDNDINPLETTGAYLSPKEFKEALLDKDTVVLDTRNDYEYDLGHFRGAIRPDIRNFRELPQWVRDNKEKFMDKRVVVYCTGGVRCEKFSGWMVREGYKDVGQLHGGIATYGKDPEVQGELWDGKMYVFDERIAVDVNHVNPTIVGKDWFDGTPCER” as the sequence, how does the “soluble on expression in E. coli” value read?
**A.** not soluble

**Q.** For “MNLFASEIFVFTPKGEIKTMPQNCTALDFAFSIHTFLGSHCIGAKVNHKLVPLSHKLQSGDQVEILTSKSQHVQPLEHHHHHH”, which “soluble on expression in E. coli” value is on record?
**A.** not soluble

**Q.** For “MGSDKIHHHHHHMDHQIEDLLEHWLPLADDAWVLAVITHVQGSAYRKPGAMMLFHEFGQGAGILSGGCLEADLRRYAQNAMQTKQVMCVTYDASDESDASYRLGCGGIVDIMLIPLLKENHDLGLIDLVHAFRHGQSGYYQLPLVASGTDARQYQARFYSADAAPFPISDFAKSKIVKQESNDTLVIPLRPRFHIGIFGGGIDAKPIAAIAHSLGWQVTVIDGRTAYARAADFPHAHIIKQAVGELAANVIAQLDCAVVINHNLGLDAAVLKAIQPYSLDYVALLGPAHRRDKVLAMAGLSAQSFSGVFSAPAGLALGGELPSAIALSILAQCHGVLHGATLKQLDEIMG”, which “soluble on expression in E. coli” value is on record?
**A.** not soluble
